One test addresses His tagged TGF-β1 (UniProt P01137 279-390). The test can be described thus: BLI.
For a further test, the target named is His-tagged huPD-L1 (human, UniProt Q9NZQ7 19-238). Put plainly: BLI. A general note: In BLI a coated tip is dipped into the sample, and binding shifts an interference pattern.
The target in test [1] is human PD-L1 on CHO-K1 cells (human, UniProt Q9NZQ7 19-290). The test can be described thus: FACS binding.
For test [2], the target named is FITC labeled human PD-L1-Fc protein (human, UniProt Q9NZQ7 19-238, FITC labeled (sites not given)). Put plainly: FACS blocking of PD-L1/PD-1.
Sequence of FITC labeled human PD-L1-Fc protein (Q9NZQ7 19-238): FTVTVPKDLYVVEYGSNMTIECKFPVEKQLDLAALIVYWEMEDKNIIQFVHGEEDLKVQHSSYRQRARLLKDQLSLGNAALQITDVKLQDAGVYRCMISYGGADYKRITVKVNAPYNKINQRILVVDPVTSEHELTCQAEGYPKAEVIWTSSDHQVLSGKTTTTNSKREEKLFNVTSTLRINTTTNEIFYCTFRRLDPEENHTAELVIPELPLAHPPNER
The target in the next test is huTGF-β1 (human, UniProt P01137 279-390). Put plainly: ELISA; simultaneous binding, detected with biotinylated hu PD-L1. On the technique in general: In an ELISA, binding on a coated surface is turned into a signal by an enzyme label.
Sequence of huTGF-β1 (P01137 279-390): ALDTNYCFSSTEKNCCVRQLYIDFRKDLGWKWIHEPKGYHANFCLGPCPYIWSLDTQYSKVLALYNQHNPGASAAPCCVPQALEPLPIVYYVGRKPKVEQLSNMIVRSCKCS

The Kd is the constant that tells how readily two partners part at equilibrium. Higher therefore signals lower affinity. As usually defined, the EC50 is the midpoint of the concentration-response curve. Lower therefore signals higher potency in that assay. One may read the IC50 as the concentration that gives 50% inhibition. High values mean a need for much substance, low ones inhibition by little substance.

Sequence of His tagged TGF-β1 (P01137 279-390): as above
Sequence of human PD-L1 on CHO-K1 cells (Q9NZQ7 19-290): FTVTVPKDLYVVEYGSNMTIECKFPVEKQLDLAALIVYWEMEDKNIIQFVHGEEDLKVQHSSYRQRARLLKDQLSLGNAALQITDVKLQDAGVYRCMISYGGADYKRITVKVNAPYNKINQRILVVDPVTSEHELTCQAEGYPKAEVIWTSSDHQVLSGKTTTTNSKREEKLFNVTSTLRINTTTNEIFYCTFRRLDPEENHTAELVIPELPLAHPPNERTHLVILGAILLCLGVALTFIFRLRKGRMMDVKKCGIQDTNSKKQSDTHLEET
Sequence of His-tagged huPD-L1 (Q9NZQ7 19-238): as the sequence (Q9NZQ7 19-238) above

B1: Bi-PLB-1.2 (antibody)
chain 1: not shown
chain 2: DIQMTQSPSFLSASVGDRVTITCKASQNVGTNVAWYQQKPGKAPKALIYSASYRYSGVPSRFSGSGSGTEFTLTISSLQPEDFATYYCQQYYSYPYTFGQGTKLEIKRTVAAPSVFIFPPSDEQLKSGTASVVCLLNNFYPREAKVQWKVDNALQSGNSQESVTEQDSKDSTYSLSSTLTLSKADYEKHKVYACEVTHQGLSSPVTKSFNRGEC
With B1, the figures for the Kd with His tagged TGF-β1 and with His-tagged huPD-L1 were 0.28 nM and 0.83 nM, respectively. Further, the EC50 in test [1] was 1.6 nM; with huTGF-β1 it was 10.3 nM. The molecule further displayed an IC50 in test [2] of 1.23 nM.
